Measurements: patent US20160264663A1 (published 2016)

B1: Rb/huPodo 83 hIgG2 (antibody, V domains shown)
VH: CQSLAESGGRLVTPGTPLTLTCTASGIDLSSYAMGWVRQAPGKGLEYIGFIYASGSIFYASWAKGRFTISKTSSTTVDLKMTSLTTEDTATYFCARAGYYFGGNYDLNLWGQGTLVTVSS
VL: DIVLTQTPASVEVAVGGTVTIKCQASQSISNYLAWYQRKPGQPPRLLIYRASTLASGVSSRFKGSGSGTQFTLTISGVECADAATYYCQQGYVSNNLDNIFGGGTEVVVK
modifications: human IgG2 constant regions
B2: Rabbit Podo 83 (Parental rabbit antibody) (antibody, V domains shown)
VH: CQSLAESGGRLVTPGTPLTLTCTASGIDLSSYAMGWVRQAPGKGLEYIGFIYASGSIFYASWAKGRFTISKTSSTTVDLKMTSLTTEDTATYFCARAGYYFGGNYDLNLWGQGTLVTVSS
VL: DIVLTQTPASVEVAVGGTVTIKCQASQSISNYLAWYQRKPGQPPRLLIYRASTLASGVSSRFKGSGSGTQFTLTISGVECADAATYYCQQGYVSNNLDNIFGGGTEVVVK
modifications: rabbit constant regions
B3: Mouse anti-podocalyxin antibody 3G2 (antibody, V domains shown)
VH: EVQLQQSGPELVKPGASVKMSCKASGYTFTSYVMHWVKQKPGQGLEWIGYIHPYNDGTNYNEKFKGKATLTSDKSSNTAYMELSSLTSEDSAVYYCARSWDWYFDVWGAGTTVTVSS
VL: QIVLTQSPAIMSASPGEKVTMTCSANSNVRYIHWHQQKSGTSPKRWIYDTSKLSSGVPARFSGSGSGTSYSLTISNMEAEDAATYYCQQWISNPLTFGAGTKLELK
B4: huPodo 83 1:1 (humanized anti-podocalyxin antibody 83, version 1) (antibody, V domains shown)
VH: EVQLVESGGGLVQPGGSLRLSCAASGIDLSSYAMGWVRQAPGKGLEWVSFIYASGSIFYASWAKGRFTISRDNSKNTLYLQMNSLRAEDTAVYYCARAGYYFGGNYDLNLWGQGTLVTVSS
VL: DIQMTQSPSSLSASVGDRVTITCQASQSISNYLAWYQQKPGKVPKLLIYRASTLASGVPSRFSGSGSGTDFTLTISSLQPEDVATYYCQQGYVSNNLDNIFGGGTEVVVK
B5: huPodo 83 2:1 (humanized anti-podocalyxin antibody 83, version 2) (antibody, V domains shown)
VH: EVQLVESGGGLVQPGGSLRLSCAASGIDLSSYAMGWVRQAPGKGLEWVSFIYASGSIFYASWAKGRFTISRDNSNTLYLQMNSLRAEDTAVYYCARAGYYFGGNYDLNLWGQGTLVTVSS
VL: DIQMTQSPSSLSASVGDRVTITCQASQSISNYLAWYQQKPGKVPKLLIYRASTLASGVPSRFSGSGSGTDFTLTISSLQPEDVATYYCQQGYVSNNLDNIFGGGTEVVVK
B6: Rb VH, Vk 1:1 (Podo 83 rabbit VH, human CH1-CH3, human Ck, and humanized Vk) (antibody, V domains shown)
VH: QSLAESGGRLVTPGTPLTLTCTASGIDLSSYAMGWVRQAPGKGLEYIGFIYASGSIFYASWAKGRFTISKTSSTTVDLKMTSLTTEDTATYFCARAGYYFGGNYDLNLWGQGTLVTVSS
VL: DIQMTQSPSSLSASVGDRVTITCQASQSISNYLAWYQQKPGKVPKLLIYRASTLASGVPSRFSGSGSGTDFTLTISSLQPEDVATYYCQQGYVSNNLDNIFGGGTEVVVK

Legend:
human podocalyxin [1] = target: T1, human podocalyxin (human); test: cross competition FACS on MDA-MB-231 cells; unlabeled antibody 25 ug/mL; detected antibody: B-mIgG1 5 ug/mL (control)
T1 chain: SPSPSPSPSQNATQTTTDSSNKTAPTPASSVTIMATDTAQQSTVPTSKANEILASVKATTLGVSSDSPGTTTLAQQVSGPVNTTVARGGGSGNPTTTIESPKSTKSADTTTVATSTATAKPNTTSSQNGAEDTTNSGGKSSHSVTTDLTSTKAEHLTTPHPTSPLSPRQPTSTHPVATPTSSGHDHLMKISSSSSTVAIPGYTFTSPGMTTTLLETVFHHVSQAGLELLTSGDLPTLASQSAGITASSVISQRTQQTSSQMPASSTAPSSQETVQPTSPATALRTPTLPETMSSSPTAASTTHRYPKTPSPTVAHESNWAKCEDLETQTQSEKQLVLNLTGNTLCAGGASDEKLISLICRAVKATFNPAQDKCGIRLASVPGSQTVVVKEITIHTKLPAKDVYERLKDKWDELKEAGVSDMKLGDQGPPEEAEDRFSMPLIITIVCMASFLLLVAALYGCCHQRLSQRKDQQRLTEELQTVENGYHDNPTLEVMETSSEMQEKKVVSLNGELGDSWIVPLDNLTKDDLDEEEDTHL

human podocalyxin [2] = target: T1, human podocalyxin; test: cross competition FACS on MDA-MB-231 cells; unlabeled antibody 25 ug/mL; competitor and detected antibody: B-3G2.2 5 ug/mL
human podocalyxin [3] = target: T1, human podocalyxin; test: cross competition FACS on MDA-MB-231 cells; unlabeled antibody 25 ug/mL; competitor and detected antibody: biotinylated Rb/Hu Podo83 5 ug/mL
human podocalyxin [4] = target: T1, human podocalyxin; test: cross competition FACS on MDA-MB-231 cells; unlabeled antibody 25 ug/mL; detected antibody: B-Herceptin 5 ug/mL (control, its target on the cells not given)
human podocalyxin [5] = target: T1, human podocalyxin; test: cross competition FACS on MDA-MB-231 cells; unlabeled antibody 25 ug/mL; detected antibody: B-Ova 12 5 ug/mL (control)
[6] = target: human podocalyxin (human); test: FACS, hPodo/MDA cells (MDA-MB-231 transfected with human podocalyxin cDNA)
[7] = target: human podocalyxin (human); test: flow cytometry, supernatant neat, hPodo/MDA-MB-231 transient transfectants
[8] = target: human podocalyxin (human); test: flow cytometry, supernatant neat, MDA-MB-231 cells
[9] = target: human podocalyxin (human); test: flow cytometry, supernatant 1:5, hPodo/MDA-MB-231 transient transfectants
[10] = target: human podocalyxin (human); test: flow cytometry, supernatant 1:125, hPodo/MDA-MB-231 transient transfectants
[11] = target: human podocalyxin (human); test: flow cytometry, supernatant 1:125, MDA-MB-231 cells
[12] = target: human podocalyxin (human); test: flow cytometry, supernatant 2:15 (so in the source), hPodo/MDA-MB-231 transient transfectants
[13] = target: human podocalyxin (human); test: flow cytometry, supernatant 2:15 (so in the source), MDA-MB-231 cells
[14] = target: human podocalyxin (human); test: flow cytometry, supernatant 1:5, MDA-MB-231 cells
human podocalyxin [15] = target: T1, human podocalyxin; test: kinetic exclusion assay (KinExA 3200), MDA-MB-231 cells
human podocalyxin [16] = target: T1, human podocalyxin; test: flow cytometry, supernatant 2:15 (so in the source), hPodo/MDA-MB-231 transient transfectants
human podocalyxin [17] = target: T1, human podocalyxin; test: flow cytometry, supernatant neat, hPodo/MDA-MB-231 transient transfectants
human podocalyxin [18] = target: T1, human podocalyxin; test: flow cytometry, supernatant 1:125, hPodo/MDA-MB-231 transient transfectants
human podocalyxin [19] = target: T1, human podocalyxin; test: flow cytometry titration on 293-6E cells (endogenous podocalyxin), 48 hours at 4 C
human podocalyxin [20] = target: T1, human podocalyxin; test: flow cytometry, supernatant 1:5, hPodo/MDA-MB-231 transient transfectants
human podocalyxin [21] = target: T1, human podocalyxin; test: flow cytometry, supernatant 1:125, MDA-MB-231 cells
human podocalyxin [22] = target: T1, human podocalyxin; test: flow cytometry titration on 293-6E cells (endogenous podocalyxin), 24 hours at 4 C
human podocalyxin [23] = target: T1, human podocalyxin; test: flow cytometry, supernatant 2:15 (so in the source), MDA-MB-231 cells
human podocalyxin [24] = target: T1, human podocalyxin; test: flow cytometry, supernatant neat, MDA-MB-231 cells
human podocalyxin [25] = target: T1, human podocalyxin; test: flow cytometry, supernatant 1:5, MDA-MB-231 cells

| Molecule | FACS signal (name not given) (human podocalyxin [16]) | FACS signal (name not given) (human podocalyxin [17]) | FACS signal (name not given) (human podocalyxin [18]) | FACS signal (name not given) (human podocalyxin [20]) | FACS signal (name not given) (human podocalyxin [21]) | FACS signal (name not given) (human podocalyxin [23]) | FACS signal (name not given) (human podocalyxin [24]) | FACS signal (name not given) (human podocalyxin [25]) | other results |
| --- | --- | --- | --- | --- | --- | --- | --- | --- | --- |
| MAB1658 (R&D Systems) (antibody) |  |  |  |  |  |  |  |  | FACS signal (name not given) (human podocalyxin [1]): 431; FACS signal (name not given) (human podocalyxin [2]): 26900; FACS signal (name not given) (human podocalyxin [3]): 127000; FACS signal (name not given) (human podocalyxin [4]): 4720; FACS signal (name not given) (human podocalyxin [5]): 476 |
| B1 |  |  |  |  |  |  |  |  | FACS signal (name not given) [6]: 98300 |
| B2 |  |  |  |  |  |  |  |  | FACS signal (name not given) [7]: 90800; FACS signal (name not given) [8]: 179000; FACS signal (name not given) [9]: 139000; FACS signal (name not given) [10]: 24100; FACS signal (name not given) [11]: 15500; FACS signal (name not given) [12]: 89700; FACS signal (name not given) [13]: 53700; FACS signal (name not given) [14]: 129000 |
| B3 |  |  |  |  |  |  |  |  | Kd (human podocalyxin [15]): 3.34 nM |
| B4 | 157000 | 124000 | 61600 | 128000 | 39400 | 91500 | 125000 | 112000 | IC50 (human podocalyxin [19]): 0.0355 µg/mL; EC50 (human podocalyxin [22]): 0.0331 µg/mL; Kd (human podocalyxin [15]): 0.26 nM |
| B5 | 79400 | 139000 | 37700 | 108000 | 22300 | 67200 | 123000 | 105000 | IC50 (human podocalyxin [19]): 0.052 µg/mL; EC50 (human podocalyxin [22]): 0.0519 µg/mL |
| B6 | 76400 | 137000 | 74500 | 124000 | 47700 | 94800 | 130000 | 115000 |  |
